In patent EP4538286A1 (Adlai Nortye Biopharma Co., Ltd., dated 2025):
Numbering of substitutions follows the chain as printed. Numbers in names are those of the source.

Legend:
[1] = molecular target: T1, human CD28 protein (human, UniProt P10747 19-152); assay: ELISA, plate-coated human CD28; set-up: binding strength @ 100nM: reference not given here
T1 construct: bought protein coated on the ELISA plate; also called human CD28 antigen

[2] = molecular target: T2, human CTLA4 protein (human, UniProt P16410 37-162, limits assumed); assay: ELISA, plate-coated human CTLA4
T2 construct: bought protein coated on the ELISA plate; also called human CTLA4 antigen
T2 sequence (looked up): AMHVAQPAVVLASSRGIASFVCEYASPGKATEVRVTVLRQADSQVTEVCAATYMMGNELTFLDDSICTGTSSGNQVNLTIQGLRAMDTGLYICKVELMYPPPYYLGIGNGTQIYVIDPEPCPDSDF

[3] = molecular target: PD-L1 on TCR activator PD-L1-CHO cells (UniProt Q9NZQ7 19-290, limits assumed); assay: cell-based or functional assay
PD-L1 on TCR activator PD-L1-CHO cells, sequence (Q9NZQ7 19-290 limits assumed): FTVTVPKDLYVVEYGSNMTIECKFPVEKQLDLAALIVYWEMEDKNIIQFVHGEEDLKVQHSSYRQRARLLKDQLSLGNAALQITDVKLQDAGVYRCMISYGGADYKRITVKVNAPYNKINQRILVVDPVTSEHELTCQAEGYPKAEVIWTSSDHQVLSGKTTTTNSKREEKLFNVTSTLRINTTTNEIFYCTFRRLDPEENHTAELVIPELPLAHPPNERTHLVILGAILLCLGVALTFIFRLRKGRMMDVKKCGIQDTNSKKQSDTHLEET

T1 sequence (P10747 19-152 limits assumed): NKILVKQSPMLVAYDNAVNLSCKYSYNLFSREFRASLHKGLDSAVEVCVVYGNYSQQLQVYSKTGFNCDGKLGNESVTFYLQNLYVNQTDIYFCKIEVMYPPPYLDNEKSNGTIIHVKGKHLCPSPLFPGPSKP

B1: Abs-357 (other)
heavy: VIHVTKEVKEVATLSCGHNVSVEELAQTRIYWQKSKKMVLTMMSGDMNIWPEYKNRTIFDITNNLSIVILELRPSDEGTYECVVLKYEKDAFKREHLAEVTLSVKADGGGGSGGGGSGGGGSGGGGSGEVQLLESGGGLVQPGGSLRLSCAASGFTFSSYAMSWVRQAPGKGLEWVSGISGSGGFTYYADSVKGRFTISRDNSKNTLYLQMNSLRAEDTAVYYCAKPPRGYNYGPFDYWGQGTLVTVSSASTKGPSVFPLAPCSRSTSESTAALGCLVKDYFPEPVTVSWNSGALTSGVHTFPAVLQSSGLYSLSSVVTVPSSSLGTKTYTCNVDHKPSNTKVDKRVESKYGPPCPPCPAPEFLGGPSVFLFPPKPKDTLMISRTPEVTCVVVDVSQEDPEVQFNWYVDGVEVHNAKTKPREEQFNSTYRVVSVLAVLHQDWLNGKEYKCKVSNKGLPSSIEKTISKAKGQPREPQVYTLPPSQEEMTKNQVSLTCLVKGFYPSDIAVAWESNGQPENNYKTTPPVLDSDGSFFLYSRLTVDKSRWQEGNVFSCSVMHEALHAHYTQKSLSLSLGK
light: SYVLTQPPSVSVAPGQTARITCGGNNIGSKSVHWYQQKPGQAPVLVVYDDSDRPSGIPERFSGSNSGNTATLTISRVEAGDEADYYCQVWDSSSDHVVFGGGTKLTVLGQPKAAPSVTLFPPSSEELQANKATLVCLISDFYPGAVTVAWKADSSPVKAGVETTTPSKQSNNKYAASSYLSLTPEQWKSHRSYSCQVTHEGSTVEKTVAPTECS
notes: CD80 IgV mutant fused to the N-terminus of the sugemalimab heavy chain; also called CD80 IgV mutant E35S/A71E-sugemalimab fusion
[1]
  EC50: 26 nM
  binding strength @ 100nM: 585%
[2]
  EC50: 17.8 nM
  binding strength @ 20nM: 1830%
[3]
  EC50(nM), Jurkat-NFAT-Luc/CHO-PDL1: 1 nM
  The highest induction relative to 10 nM sugemalimab: 238%

B2: Abs-359 (other)
heavy: B1 heavy with E71Q
light: B1 light
notes: CD80 IgV mutant fused to the N-terminus of the sugemalimab heavy chain; also called CD80 IgV mutant E35S/A71Q-sugemalimab fusion
[1]
  EC50: 21.1 nM
  binding strength @ 100nM: 450%
[2]
  EC50: 26.4 nM
  binding strength @ 20nM: 766%
[3]
  EC50(nM), Jurkat-NFAT-Luc/CHO-PDL1: 0.88 nM
  The highest induction relative to 10 nM sugemalimab: 42%

B3: Abs-361 (other)
heavy: B1 heavy with S35Q
light: B1 light
notes: CD80 IgV mutant fused to the N-terminus of the sugemalimab heavy chain; also called CD80 IgV mutant E35Q/A71E-sugemalimab fusion
[1]
  binding result: no binding
[2]
  binding result: no binding
[3]
  EC50(nM), Jurkat-NFAT-Luc/CHO-PDL1: 1.13 nM
  The highest induction relative to 10 nM sugemalimab: 334%

B4: Abs-362 (other)
heavy: B1 heavy with S35Q, E71N
light: B1 light
notes: CD80 IgV mutant fused to the N-terminus of the sugemalimab heavy chain; also called CD80 IgV mutant E35Q/A71N-sugemalimab fusion
[1]
  EC50: 26.1 nM
  binding strength @ 100nM: 1100%
[2]
  EC50: 8.39 nM
  binding strength @ 20nM: 3180%
[3]
  EC50(nM), Jurkat-NFAT-Luc/CHO-PDL1: 0.58 nM
  The highest induction relative to 10 nM sugemalimab: 337%

B5: Abs-364 (other)
heavy: B1 heavy with S35Q, E71T
light: B1 light
notes: CD80 IgV mutant fused to the N-terminus of the sugemalimab heavy chain; also called CD80 IgV mutant E35Q/A71T-sugemalimab fusion
[1]
  EC50: 27.6 nM
  binding strength @ 100nM: 785%
[2]
  EC50: 5.45 nM
  binding strength @ 20nM: 3130%
[3]
  EC50(nM), Jurkat-NFAT-Luc/CHO-PDL1: 1.06 nM
  The highest induction relative to 10 nM sugemalimab: 150%

B6: Abs-360 (other)
heavy: B1 heavy with E71T
light: B1 light
notes: CD80 IgV mutant fused to the N-terminus of the sugemalimab heavy chain; also called CD80 IgV mutant E35S/A71T-sugemalimab fusion
[1]
  EC50: 25.9 nM
  binding strength @ 100nM: 933%
[2]
  EC50: 26.7 nM
  binding strength @ 20nM: 316%
[3]
  EC50(nM), Jurkat-NFAT-Luc/CHO-PDL1: 0.82 nM
  The highest induction relative to 10 nM sugemalimab: 64%

B7: Abs-363 (other)
heavy: B1 heavy with S35Q, E71Q
light: B1 light
notes: CD80 IgV mutant fused to the N-terminus of the sugemalimab heavy chain; also called CD80 IgV mutant E35Q/A71Q-sugemalimab fusion
[1]
  binding result: no binding
[2]
  binding result: no binding
[3]
  EC50(nM), Jurkat-NFAT-Luc/CHO-PDL1: 1 nM
  The highest induction relative to 10 nM sugemalimab: 121%

B8: Abs-368 (other)
heavy: B1 heavy with S35T, E71T
light: B1 light
notes: the paragraph that names the antibody is followed; also called CD80 IgV mutant E35T/A71T-sugemalimab fusion
[1]
  EC50: 28.7 nM
  binding strength @ 100nM: 700%
[2]
  binding result: no binding
[3]
  EC50(nM), Jurkat-NFAT-Luc/CHO-PDL1: 0.52 nM
  The highest induction relative to 10 nM sugemalimab: 138%

B9: Abs-367 (other)
heavy: B1 heavy with S35T, E71Q
light: B1 light
notes: the paragraph that names the antibody is followed; also called CD80 IgV mutant E35T/A71Q-sugemalimab fusion
[1]
  EC50: 27.7 nM
  binding strength @ 100nM: 700%
[2]
  EC50: 26.5 nM
  binding strength @ 20nM: 640%
[3]
  EC50(nM), Jurkat-NFAT-Luc/CHO-PDL1: 1.84 nM
  The highest induction relative to 10 nM sugemalimab: 113%

B10: Abs-365 (other)
heavy: B1 heavy with S35T
light: B1 light
notes: CD80 IgV mutant fused to the N-terminus of the sugemalimab heavy chain; also called CD80 IgV mutant E35T/A71E-sugemalimab fusion
[1]
  EC50: 27.9 nM
  binding strength @ 100nM: 857%
[2]
  EC50: 24.7 nM
  binding strength @ 20nM: 400%
[3]
  EC50(nM), Jurkat-NFAT-Luc/CHO-PDL1: 2.75 nM
  The highest induction relative to 10 nM sugemalimab: 129%

B11: Abs-358 (other)
heavy: B1 heavy with E71N
light: B1 light
notes: CD80 IgV mutant fused to the N-terminus of the sugemalimab heavy chain; also called CD80 IgV mutant E35S/A71N-sugemalimab fusion
[1]
  binding result: no binding
[2]
  binding result: no binding
[3]
  EC50(nM), Jurkat-NFAT-Luc/CHO-PDL1: 1.1 nM
  The highest induction relative to 10 nM sugemalimab: 277%
